Results on 2 molecules are retold here after US7700353B2, “Compositions and methods for inducing apoptosis in tumor cells” (E-P Therapeutics, Inc., priority 1998, dated 2010).

Assay [1] concerns SK-N-F1 neuroblastoma cells. Description: Neurite-like process outgrowth / morphological differentiation. Type of assay: cell-based, human. How it is done:
Cells under various treatment conditions were maintained at 37° C. in a 5% CO2 incubator and observed from 30 minutes to 72 hours after incubation (synthetic human Ea- and Eb-peptide were chemically synthesized at the Biotechnology Center, University of Connecticut). For treatment with synthetic hEa, hEb peptide or hlGF-I, 1×10^5 cells were plated in each well of a 12-well culture plate in DMEM/F12 (1:1) supplemented with 0.4-3.2 µM of synthetic hEa-, hEb-peptide and/or 5-10 nM of hlGF-I.
Neuroblastoma SK-N-F1 cells (10^5) were seeded into 12-well culture plates in DMEM/F12 (1:1) supplemented with 0-3.2 µM of synthetic hEb-peptide, or buffer control, and incubated at 37° C. in a 5% CO2 humidified incubator.
Cell images were taken by random sampling at various time points using a MicroMAX CCD camera (Princeton Instruments, Bozeman, Mont.). Approximately 1000 cells were analyzed from each treatment, carried out in triplicate. Cells with neurites longer than one cell body diameter (>20 µm for SK-N-F1 cells) were scored as positive neurite-bearing (Fagerstrom, et al., Cell Growth Differ., 7: 775-85, 1996; Morrione, et al., Cancer Res. 60: 2263-72, 2000). The percentage of neurite-bearing cells and the respective length of neurites were measured with reference to a stage micrometer and analyzed using the public domain NIH Image program (developed at the U.S. National Institutes of Health and available on the Internet at http://rsb.info.nih.gov/nih-image).
To further characterize the dose-response relationship and time course of hEb peptide in inducing neurite-like process outgrowth, SK-N-F1 neuroblastoma cells were treated with various amounts (0 to 3.2 µM) of hEb peptide over a course of 72 hours. Images of cells were taken by random sampling after 1 h, 6 h, 24 h, 48 h and 72 h of incubation (see FIG. 11B). The average length of neurite-like process outgrowth was measured by random sampling of more than 1000 cells at various time points. The neurite-like processes started to be visible as early as 0.5-1 hour after the addition of hEb peptide. The effect of hEb peptide in inducing neurite-like outgrowth was dose-dependent, as evident from a comparison of cells treated with 0.4 µM hEb peptide with those treated with 0.8-3.2 µM hEb peptide over 24-72 hours. The maximum effect of hEb peptide was observed 48 hours after the addition of 3.2 µM hEb peptide, with an average neurite length of 50 to 60 µm (Table 1, below).

The test system of assay [2] is MDA-MB-231 cells on chicken CAM. In words: Human breast cancer cells seeded on chicken CAM. Type of assay: in vivo. As to conditions: single or multiple doses, five day old chicken embryos. An excerpt: The invasion of MDA-MB-231 cells in the chicken embryos was further confirmed by immunocytochemistry. […] The activity in the widely accepted chicken model, provides ample support for the belief that the methods of the invention can be used to treat cancer in animals as well as humans.

Assay [3] concerns MDA-MB-231 and ZR-75-1 cells. Description: Colony formation of hEb cDNA transfectants. Type of assay: cell-based, human. As to conditions: cells transfected with hEb cDNA. How it is done: Two gene constructs, CMV-IG F-1-sp-hEb-cDNA-IRES-EGFP and CMV-IRES-EGFP were used in the transfection studies. The first construct (FIG. 9B) contained hEb peptide cDNA (with a signal peptide sequence of hlGF-1), a ribosome re-entry site (IRES) and an enhanced green fluorescence protein (EGFP) marker gene. […] The expression of both gene constructs was driven by a promoter from CMV.
Transfection of the cells was accomplished as follows. MDA-MB-231 cells were cultured in F12/DMEM supplemented with 10% FBS and 10 ng/ml of insulin to 90% confluence. About 5×10^6 cells were harvested and resuspended in 1 mL of serum-free F12/DMEM containing 20 µg of un-linearized constructs. The cells were electroporated in a BRL Cell-Porator using the following settings: low .OMEGA., 1180 micro Faraday (µF) capacitance, and two pulses at 200 volts. Following electroporation, cells were resuspended in 12 mL of fresh growth medium and seeded into a 6-well plate to recover. Permanent transfectants expressing green fluorescence protein (GFP) were enriched in a medium containing neomycin (G418) at 1 mg/mL for ten days and followed with 500 µg/mL for continuous maintenance. Individual green cell clones of transfectants were isolated from the enriched population by the method of serial dilution. […]

Assay [4] deals with chorioallantoic membrane (CAM) of chick embryos. Description: Chick embryo chorioallantoic membrane (CAM) angiogenesis assay. Type of assay: in vivo. As to conditions: day 7. How it is done:
A suitable assay is the chick embryo chorioallantoic membrane (CAM) assay described by Crum et al. Science 230:1375 (1985). See also, U.S. Pat. No. 5,001,116, hereby incorporated by reference, which describes the CAM assay. Briefly, the Ea-4 peptide (40 µg and 80 µg), endostatin (5 µg and 10 µg) and a PBS control buffer were delivered onto the chorioallantoic membrane (CAM) of three-day old chick embryos. The CAMs were photographed in ovo with a digital camera on day 7. The angiogenic response was assessed by counting the number of intersect points of the blood vessels spread out in a defined field (vessel density). […] The effect is quantified in the histogram in FIG. 17.
Each were dissolved in PBS, and various and known amounts of hEb-peptide (250 µg, 500 µg and 1000 µg respectively) and human endostatin (10 µg and 20 µg respectively) were applied to the CAM. Pictures were taken on day 7 for vessel density determination.

Assay [5] has as its system NIH 3T3 cells and caprine mammary epithelium cells (CMEC). As to conditions: recombinant peptides; cited from earlier work.

B1: hEb: chemically synthesized human Eb peptide of pro-IGF-I, 77 amino acid residues (SEQ ID NO:1) (peptide, listed as Homo sapiens)
chain: RSVRAQRHTDMPKTQKYQPPSTNKNTKSQRRKGWPKTHPGGEQKEGTEASLQIRGKKKEQRREIGSRNAECRGKKGK
Regarding B1, the Neurite length is reported as 31 ± 7.6 μm in assay [1] (0.4 μM, 6 h); 29 ± 5.2 μm in assay [1] (0.4 μM, 24 h); 35 ± 0.9 μm in assay [1] (0.4 μM, 48 h); 32 ± 3.1 μm in assay [1] (0.4 μM, 72 h); 33 ± 2.1 μm in assay [1] (0.8 μM, 2 h); 36 ± 0.6 μm in assay [1] (0.8 μM, 6 h). Further, the Neurite length is 38 ± 3.9 μm in assay [1] (0.8 μM, 24 h); 43 ± 1.0 μm in assay [1] (0.8 μM, 48 h); 41 ± 2.5 μm in assay [1] (0.8 μM, 72 h); 38 ± 3.5 μm in assay [1] (1.6 μM, 6 h); 39 ± 1.8 μm in assay [1] (1.6 μM, 24 h); 47 ± 3.9 μm in assay [1] (1.6 μM, 48 h). Besides, the Neurite length in assay [1] (1.6 μM, 72 h) was 48 ± 2.8 μm; in assay [1] (3.2 μM, 6 h) it was 39 ± 2.2 μm; in assay [1] (3.2 μM, 24 h), 45 ± 1.7 μm; in assay [1] (3.2 μM, 48 h) it was 52 ± 3.7 μm; in assay [1] (3.2 μM, 72 h), 48 ± 2.7 μm. Further, the morphological change result in assay [1] (1.6 μM or 3.2 μM) is on record as “differentiated into a neuron-like morphology”. In assay [1] (after addition of peptide), the “time at which neurite-like processes started to be visible” value lay in the range of 0.5 to 1 h. In addition, in assay [1] (hEb-peptide combined with mature hIGF-I, 1-4 hours after stimulation), the “increase in the percentage of neurite-bearing cells” value was 20-30%. Further, the “in vitro effective concentration” value in assay [1] (synthetic peptide) lay in the range of 0.4 to 3.2 µM. Further, the “growth and invasion of MDA-MB-231 cells and induction of blood vessel formation on chicken CAM” value in assay [2] is on record as “inhibited”. Also, the colony formation activities result in assay [3] is recorded as “greatly reduced or diminished completely”. Further, the vessel density entry in assay [4] (250, 500 and 1000 μg on CAM) was “dose-dependent reduction”.

B2: rtEa-4: recombinant Ea-4 peptide of rainbow trout pro-IGF-I, 74 amino acid residues (SEQ ID NO: 2) (protein)
chain: RSVRAQRHTDMPRTPKVSTAVQNVDRGTERRTAQHPDKTKTKKKPLSGHSHPSCKEVHQKNSSRGNTGGRNYRM
modifications: Oncorhynchus mykiss
Consider B2, for which the mitogenic activity result in assay [5] is “possess mitogenic activity”. Besides, the “growth and invasion of MDA-MB-231 cells and induction of blood vessel formation on chicken CAM” value in assay [2] is on record as “inhibited”. Besides, in assay [4] (40 μg and 80 μg on CAM of three-day old chick embryos), the blood vessel branching entry is “inhibitory effect”.
